What was measured:
[1] = Direct vial assay: adsorption of labeled insulin to various coated surfaces (fluorescence); assay type: physicochemical; details: 10 μg/mL in 50 mM phosphate buffer pH 7, 4° C., 72 hours; nine surfaces (FIG. 6)
Text: (§1) One aspect of the invention is an assay method for the determination of drug adsorption to commercially available pharmaceutical packaging surfaces and test surfaces under development. Pharmaceutical packaging surface materials include glass, polymers (polyethylene, polypropylene, polycarbonate, polyterphalate, cylic olefin copolymer, etc.), elastomers (rubbers, etc.), metals and alloys for vials, syringes, ampoules, cartridges, stoppers, etc. and components thereof. The assay consists of the following steps: • 1) Drug of interest is labeled with a fluorescent chemical group and degree of incorporation of dye is quantified. • 2) Calibration curves of various concentrations of the fluorescently labeled biomolecules are generated. • 3) Fluorescently labeled drug solution is exposed to the pharmaceutical packaging surface of interest for a length of time ranging from minutes to years. • 4) Fluorescently labeled drug solution is removed from pharmaceutical packaging surface of interest. This solution can be analyzed to determine the amount of drugs remaining in the solution. […] Aliquots of the solution, or aliquots of the solution first concentrated, are then applied to a sample holding surface for determination of biomolecular adsorption via fluorescence measurements. […]

[2] = supplier material data; cited from earlier work
[3] = Direct vial assay: adsorption of Cy3-labeled fibrinogen to coated Type 1 glass surfaces (fluorescence); assay type: physicochemical; details: 5 μg/mL in 50 mM phosphate buffer pH 7, 4° C., 72 hours; four surfaces (FIG. 3)
Text: as §1

| Substance | protein adsorption to sample surfaces, normalized to Type 1 vial [1] | pI [2] | protein adsorption to sample surfaces [3] |
| --- | --- | --- | --- |
| insulin: Porcine insulin from Sigma (15523), test biomolecule | quantifiable difference in protein adsorption between various sample surfaces | 7.0 | – |
| fibrinogen | – | 5.4 | quantifiable difference in protein adsorption between various sample surfaces |
